# Reference: article doi:10.1101/2021.05.20.444958
# Tested on: His6-DnaA (Escherichia coli K-12?)
# Test: EMSA
substance,measurement,value
"iraD upstream region, 672 bp",Kd,42 nM
